Tests used:
Assay in all cases: cell-based or functional assay
[1] = target: HIV-1 Nef (full length Nef gene, accession no. GQ184335) cloned in VP16pCDNA+pACT mammalian two-hybrid vector (herpes simplex virus type 1; HIV-1)
[2] = target: ASK1(g) cloned in pEYFP-N1 (human) (UniProt Q99683)
[3] = target: ASK1(h) cloned in pEYFP-N1 (human) (UniProt Q99683)
[4] = target: ASK1i cloned in pEYFP-N1 (human) (UniProt Q99683)
ASK1i cloned in pEYFP-N1 (human), sequence (Q99683 1-904): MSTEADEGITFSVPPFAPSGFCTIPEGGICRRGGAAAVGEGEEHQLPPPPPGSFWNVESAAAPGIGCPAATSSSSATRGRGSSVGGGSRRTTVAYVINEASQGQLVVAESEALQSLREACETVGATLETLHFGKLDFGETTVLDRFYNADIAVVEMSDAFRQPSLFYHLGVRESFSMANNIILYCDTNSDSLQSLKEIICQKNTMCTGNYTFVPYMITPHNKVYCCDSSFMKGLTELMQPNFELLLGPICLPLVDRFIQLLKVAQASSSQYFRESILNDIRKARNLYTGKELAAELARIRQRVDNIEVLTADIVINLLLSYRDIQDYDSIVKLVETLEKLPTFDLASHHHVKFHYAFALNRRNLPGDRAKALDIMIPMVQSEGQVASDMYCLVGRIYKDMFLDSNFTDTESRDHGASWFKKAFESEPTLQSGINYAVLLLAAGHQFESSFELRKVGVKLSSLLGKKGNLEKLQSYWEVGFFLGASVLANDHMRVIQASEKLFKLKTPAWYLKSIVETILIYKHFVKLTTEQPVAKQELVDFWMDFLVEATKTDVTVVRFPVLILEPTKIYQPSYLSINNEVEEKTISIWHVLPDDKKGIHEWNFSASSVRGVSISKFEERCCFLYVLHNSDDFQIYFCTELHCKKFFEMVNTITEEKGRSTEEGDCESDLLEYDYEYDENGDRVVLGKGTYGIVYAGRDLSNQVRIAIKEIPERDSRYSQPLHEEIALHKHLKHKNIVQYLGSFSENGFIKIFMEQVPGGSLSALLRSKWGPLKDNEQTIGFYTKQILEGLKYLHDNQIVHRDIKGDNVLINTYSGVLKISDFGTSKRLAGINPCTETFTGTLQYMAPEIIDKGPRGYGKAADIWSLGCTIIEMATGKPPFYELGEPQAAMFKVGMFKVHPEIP

ASK1(g) cloned in pEYFP-N1 (human), sequence (Q99683 1-1050): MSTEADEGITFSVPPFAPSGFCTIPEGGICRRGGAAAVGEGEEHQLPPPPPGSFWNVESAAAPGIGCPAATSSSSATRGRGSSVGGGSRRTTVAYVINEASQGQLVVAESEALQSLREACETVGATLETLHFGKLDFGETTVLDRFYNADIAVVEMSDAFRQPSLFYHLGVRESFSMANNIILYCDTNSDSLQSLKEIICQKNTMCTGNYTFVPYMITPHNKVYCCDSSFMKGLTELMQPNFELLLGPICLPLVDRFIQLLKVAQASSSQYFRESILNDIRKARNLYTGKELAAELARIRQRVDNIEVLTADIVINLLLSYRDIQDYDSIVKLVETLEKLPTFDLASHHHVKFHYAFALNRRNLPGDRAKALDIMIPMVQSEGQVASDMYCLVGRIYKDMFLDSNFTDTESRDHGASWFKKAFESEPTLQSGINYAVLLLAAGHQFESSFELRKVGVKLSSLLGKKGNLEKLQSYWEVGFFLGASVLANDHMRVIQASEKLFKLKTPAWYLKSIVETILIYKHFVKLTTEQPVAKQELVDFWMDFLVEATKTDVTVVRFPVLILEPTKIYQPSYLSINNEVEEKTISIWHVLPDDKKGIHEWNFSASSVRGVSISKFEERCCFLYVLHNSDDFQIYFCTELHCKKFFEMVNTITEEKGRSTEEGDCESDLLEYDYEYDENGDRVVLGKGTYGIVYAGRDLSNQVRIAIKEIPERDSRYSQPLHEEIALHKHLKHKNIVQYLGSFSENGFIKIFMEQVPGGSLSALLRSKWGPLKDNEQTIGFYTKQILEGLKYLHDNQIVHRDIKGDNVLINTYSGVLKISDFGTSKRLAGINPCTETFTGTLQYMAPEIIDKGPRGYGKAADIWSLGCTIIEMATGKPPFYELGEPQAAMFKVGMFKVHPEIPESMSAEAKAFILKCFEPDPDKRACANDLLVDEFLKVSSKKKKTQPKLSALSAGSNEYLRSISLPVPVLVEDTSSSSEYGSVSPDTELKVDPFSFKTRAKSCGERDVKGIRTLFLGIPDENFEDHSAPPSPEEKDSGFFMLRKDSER
ASK1(h) cloned in pEYFP-N1 (human), sequence (Q99683 320-1050): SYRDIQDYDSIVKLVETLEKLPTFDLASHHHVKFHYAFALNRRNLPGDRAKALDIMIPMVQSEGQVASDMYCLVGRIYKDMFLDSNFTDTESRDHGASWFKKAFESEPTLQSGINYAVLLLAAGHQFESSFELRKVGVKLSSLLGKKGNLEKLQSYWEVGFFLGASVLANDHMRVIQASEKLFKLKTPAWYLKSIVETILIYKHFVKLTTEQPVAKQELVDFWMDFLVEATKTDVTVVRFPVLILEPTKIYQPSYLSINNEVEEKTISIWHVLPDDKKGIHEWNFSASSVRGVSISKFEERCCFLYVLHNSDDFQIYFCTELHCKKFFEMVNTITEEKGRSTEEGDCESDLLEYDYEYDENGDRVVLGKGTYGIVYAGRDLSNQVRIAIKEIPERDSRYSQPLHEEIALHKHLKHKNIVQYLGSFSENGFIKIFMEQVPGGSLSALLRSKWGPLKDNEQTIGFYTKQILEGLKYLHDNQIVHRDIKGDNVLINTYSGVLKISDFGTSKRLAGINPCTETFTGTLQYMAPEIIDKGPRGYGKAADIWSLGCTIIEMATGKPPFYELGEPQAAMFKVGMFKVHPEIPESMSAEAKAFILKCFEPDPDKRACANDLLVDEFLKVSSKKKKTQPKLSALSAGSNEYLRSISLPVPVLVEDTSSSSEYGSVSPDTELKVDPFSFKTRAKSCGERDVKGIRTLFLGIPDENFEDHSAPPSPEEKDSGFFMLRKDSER

“ASK1d (2581-3152) cloned in pBIND (from UniProt P04386 1-147; Q99683 861-1050)” showed a luciferase activity compared to negative control pACT-pBIND [1] of 2.89 fold.
Substance “ASK1a (1-1035) cloned in pBIND (from UniProt P04386 1-147; Q99683 1-345)” has a luciferase activity compared to negative control pACT-pBIND [1] of 2.28 fold.
Substance “ASK1i (contain ASK1a and downstream sequence) cloned in pBIND (from UniProt P04386 1-147; Q99683 1-904)” has a luciferase activity compared to negative control [1] of 2.72 fold.
For “ASK1g (contain both ASK1a, ASK1d and in between sequence) cloned in pBIND (from UniProt P04386 1-147; Q99683 1-1050)”, the luciferase activity compared to negative control pACT-pBIND [1] was 154 fold.
With “ASK1b (959-2010) cloned in pBIND (from UniProt P04386 1-147; Q99683 320-670)” the luciferase activity compared to negative control pACT-pBIND [1] was 1.1 fold.
Work on “ASK1j (contain in between ASK1a and ASK1d fragment) cloned in pBIND (from UniProt P04386 1-147; Q99683 320-904)” yielded a luciferase activity compared to negative control [1] of 0.5 fold.
Work on “ASK1h (Contain ASK1d and upstream sequence) cloned in pBIND (from UniProt P04386 1-147; Q99683 320-1050)” yielded a luciferase activity compared to negative control [1] of 8.41 fold.
Work on “HIV-1 Nef (accession no. GQ184335) cloned in pEYFP-N1” yielded a % of Annexin V cells means apoptotic cells [2] of 22.1%, an annexin V stained cells after co-transfection [2] of 20% and an inhibition of apoptosis [2] of 52%. For the same substance, the inhibition of apoptosis (annexin V and PI staining) [2] was 50%, the phosphorylation of JNK kinase (western blot, densitometry) [2] was 2 fold and the annexin V stained cells after co-transfection [3] was 38%. The inhibition of apoptosis [3] was 10%, the annexin V stained cells after co-transfection [4] was 26% and the inhibition of apoptosis [4] was 42%.
